Assay results taken from patent US20230227540A1 (ABL BIO, published 2023).
Where “and” joins values, the source holds several entries; their conditions need not be identical. Identical values can stand only once.

B1: 3A9 (antibody, V domains shown)
VH: EVQLQESGGGLVKPGGSLKLSCAASGFTFSSYAMSWVRQTPEKRLEWVATISNGGGYTYYPDSVKGRFTISRDNAKNTLYLQMSSLRSEDTAMYYCARHITTVRPTKYFDYWGQGTTLTVSS
VL: DIVMTQSPKFMSTSVGDRVSITCKASQNVGTTVAWYQQKPGQSPKLLIYSASNRYTGVPDRFTGSGSGTDFTLTISNMQSEDLADYFCQQYSNYPLTFGAGTKLELR
notes: Only the variable domains are tied to the clone as tested; also called mouse monoclonal anti α-Syn antibody 3A9
B2: 10F10 (antibody, IgG2a, V domains shown)
VH: EVQLQESGPGLVKPSQSLSLTCSVTGYSITGGFYWNWIRQFPGNNLEWMGYINYDGSSDYSPSLKNRISITRDTSKNQFFLNLNSVTTEDTATYYCVRGDYDWGQGTTLTVSS
VL: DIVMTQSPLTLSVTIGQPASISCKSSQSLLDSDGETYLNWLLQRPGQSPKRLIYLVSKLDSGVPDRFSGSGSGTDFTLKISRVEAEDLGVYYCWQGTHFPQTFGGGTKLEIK
notes: Only the variable domains are tied to the clone as tested; also called mouse monoclonal anti α-Syn antibody 10F10
B3: 1E4 (antibody, V domains shown)
VH: EVQLQESGAELVRPGTSVKVSCKASGYAFTNYLIEWVKQRPGQGLEWIGVINPGSGGTNYNEKFKGKATLTADKSSSTAYMQLSSLTSDDSAVYFCASGNYDTYWGQGTLVTVSA
VL: DIVMTQSPLSLPVSLGDQASISCRSSQSLVHSNGNTYLHWYLQKPGQSPKLLIYKVSNRFSGVPDRFSGSGSGTDFTLKISRVEAEDLGVYFCSQSTHVPRTFGGGTKLEIK
notes: Antibody purified from a mouse hybridoma, raised against the full-length (140 residues) α-Syn aggregate; Only the variable domains are tied to the clone as tested; also called mouse monoclonal anti α-Syn antibody 1E4
B4: 9B11 (antibody, V domains shown)
VH: EVQLQESGGGLVQPKGSLKLSCAASGFTFNTYAMNWVRQAPGKGLEWVARIRSKSNNYATYYADSVKDRFTISRDDSQSMLYLQMNNLKTEDTAMYYCVRQDFDYWGQGTTLTVSS
VL: DIVMTQSPLSLPVSLGDQASISCRSSQSLVHSNGNTYLHWYLQKPGQSPKLLIYKVSNRFSGVPDRFSGSGSGTDFTLKISRVEAEDLGVYFCSQSTHVPLTFGAGTKLEQK
notes: Antibody purified from a mouse hybridoma, raised against the full-length α-Syn aggregate; Only the variable domains are tied to the clone as tested; also called mouse monoclonal anti α-Syn antibody 9B11
B5: AC8 (scFv, V domains shown)
VH: EVQLLESGGGLVQPGGSLRLSCAASGFTFSDYSMSWVRQAPGKGLEWVSGISSGGSSKYYADSVKGRFTISRDNSKNTLYLQMNSLRAEDTAVYYCAKIFHNFDYWGQGTLVTVSS
VL: QSVLTQPPSASGTPGQRVTISCSGSSSNIGSNNVYWYQQLPGTAPKLLIYYDSQRPSGVPDRFSGSKSGTSASLAISGLRSEDEADYYCASWDASLSAYVFGGGTKLTVLG
notes: Clone from a human scFv phage library; The screen used soluble HA-tagged scFv; The dot blot was detected with anti-human Fc-HRP, so an Fc-bearing format may have been used there; also called ScFV anti α-Syn antibody AC8
B6: AE8 (scFv, V domains shown)
VH: EVQLLESGGGLVQPGGSLRLSCAASGFTFSNYAMSWVRQAPGKGLEWVSAISSGGGNIYYADSVKGRFTISRDNSKNTLYLQMNSLRAEDTAVYYCARRPLYFDYWGQGTLVTVSS
VL: QSVLTQPPSASGTPGQRVTISCSGSSSNIGNNSVNWYQQLPGTAPKLLIYANNNRPSGVPDRFSGSKSGTSASLAISGLRSEDEADYYCGSWDASLNGYVFGGGTKLTVLG
notes: Clone from a human scFv phage library; also called ScFV anti α-Syn antibody AE8
B7: AA9 (scFv, V domains shown)
VH: EVQLLESGGGLVQPGGSLRLSCAASGFTFSSYSMSWVRQAPGKGLEWVSAIYPGSSNKYYADSVKGRFTISRDNSKNTLYLQMNSLRAEDTAVYYCARHAATFDYWGQGTLVTVSS
VL: QSVLTQPPSASGTPGQRVTISCSGSSSNIGSNYVSWYQQLPGTAPKLLIYGDNKRPSGVPDRFSGSKSGTSASLAISGLRSEDEADYYCGAWDDSLSGYVFGGGTKLTVLG
notes: Clone from a human scFv phage library; also called ScFV anti α-Syn antibody AA9
B8: DA9 (scFv, V domains shown)
VH: EVQLLESGGGLVQPGGSLRLSCAASGFTFSNYAMSWVRQAPGKGLEWVSVISPSDSNTYYADSVKGRFTISRDNSKNTLYLQMNSLRAEDTAVYYCARVTLSCRASRCSYSNGMDVWGQGTLVTVSS
VL: QSVLTQPPSASGTPGQRVTISCSGSPSNIGNNSVSWYQQLPGTAPKLLIYANSHRPSGVPDRFSGSKSGTSASLAISGLRSEDEADYYCGSWDASLNGYVFGGGTKLTVLG
notes: Clone from a human scFv phage library; also called ScFV anti α-Syn antibody DA9
B9: AD2 (scFv, V domains shown)
VH: EVQLLESGGGLVQPGGSLRLSCAASGFTFSNYAMSWVRQAPGKGLEWVSAISHSGSSKYYADSVKGRFTISRDNSKNTLYLQMNSLRAEDTAVYYCARSGNNFDYWGQGTLVTVSS
VL: QSVLTQPPSASGTPGQRVTISCTGSSSNIGNNSVSWYQQLPGTAPKLLIYSDNNRPSGVPDRFSGSKSGTSASLAISGLRSEDEADYYCGSWDASLSGYVFGGGTKLTVLG
notes: Clone from a human scFv phage library; also called ScFV anti α-Syn antibody AD2
B10: DG11 (scFv, V domains shown)
VH: EVQLLESGGGLVQPGGSLRLSCAASGFTFSDYAMSWVRQAPGKGLEWVSVISPGSGSKYYADSVKGRFTISRDNSKNTLYLQMNSLRAEDTAVYYCAKVTISCARMRCSYADGMDVWGQGTLVTVSS
VL: QSVLTQPPSASGTPGQRVTISCTGSSSNIGSNSVSWYQQLPGTAPKLLIYANSNRPSGVPDRFSGSKSGTSASLAISGLRSEDEADYYCAAWDASLSAYVFGGGTKLTVLG
notes: Clone from a human scFv phage library; also called ScFV anti α-Syn antibody DG11
B11: DG8 (scFv, V domains shown)
VH: EVQLLESGGGLVQPGGSLRLSCAASGFTFSDHAMSWVRQAPGKGLEWVSVISHGNGSKYYADSVKGRFTISRDNSKNTLYLQMNSLRAEDTAVYYCARVASRCRRGRCSYSDGMDVWGQGTLVTVSS
VL: QSVLTQPPSASGTPGQRVTISCSGSSSNIGSNSVSWYQQLPGTAPKLLIYANNNRPSGVPDRFSGSKSGTSASLAISGLRSEDEADYYCGAWDSSLSAYVFGGGTKLTVLG
notes: Clone from a human scFv phage library; also called ScFV anti α-Syn antibody DG8
B12: AD7 (scFv, V domains shown)
VH: EVQLLESGGGLVQPGGSLRLSCAASGFTFSGYAMSWVRQAPGKGLEWVSAISPNGGNKYYADSVKGRFTISRDNSKNTLYLQMNSLRAEDTAVYYCARRPVYFDYWGQGTLVTVSS
VL: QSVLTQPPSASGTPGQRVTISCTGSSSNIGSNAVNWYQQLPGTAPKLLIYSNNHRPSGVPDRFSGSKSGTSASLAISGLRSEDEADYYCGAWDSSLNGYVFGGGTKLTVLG
notes: Clone from a human scFv phage library; also called ScFV anti α-Syn antibody AD7
B13: DG5 (scFv, V domains shown)
VH: EVQLLESGGGLVQPGGSLRLSCAASGFTFSNYAMSWVRQAPGKGLEWVSVISPGSGNTYYADSVKGRFTISRDNSKNTLYLQMNSLRAEDTAVYYCARVTIACPTKRCSYSNGMDVWGQGTLVTVSS
VL: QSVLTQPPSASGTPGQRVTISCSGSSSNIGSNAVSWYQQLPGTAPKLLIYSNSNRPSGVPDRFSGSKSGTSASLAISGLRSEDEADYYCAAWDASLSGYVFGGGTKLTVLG
notes: Clone from a human scFv phage library; also called ScFV anti α-Syn antibody DG5
B14: 11F11 (antibody, IgG2b, V domains shown)
VH: EVQLQESGGGLVQPGGSLRLSCATSGFTFSDFYMEWVRQPPGKRLEWIAASRNKANDYTTEYSASVKGRFIVSRDTSQSILYLQMNALRAEDTAIYYCARDAHGKPFAYWGQGTLVTVSA
VL: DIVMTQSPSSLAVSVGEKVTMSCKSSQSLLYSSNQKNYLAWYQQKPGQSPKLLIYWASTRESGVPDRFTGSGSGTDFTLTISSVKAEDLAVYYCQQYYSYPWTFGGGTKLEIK
notes: Only the variable domains are tied to the clone as tested; also called mouse monoclonal anti α-Syn antibody 11F11

Experiments:
α-syn aggregate [1] = biological target: T1, α-syn aggregate (human, UniProt P37840 1-140); assay: ELISA (Example 2-2), column Fibrils
Description: ELISA analysis was performed to quantitatively analyze the binding affinity of the antibody of the present invention to the antigen. For this, alpha-synuclein antibody of the present invention was coated on a 96-well plate at a concentration of 1 mg/ml and treated with alpha, synuclein fibril aggregates at 10, 100, 1000 and 10,000 ng/ml. After washing with PBS, streptavidin conjugated with HRP and secondary antibody conjugate with biotin was treated and then reacted with TMB as a substrate. The absorbance was measured.

α-syn aggregate [2] = biological target: T1, α-syn aggregate; assay: Octet (BLI), α-syn aggregate (Example 2-6)
Description: Specifically, the running buffer was 1 x KB buffer (cat. 18-1092) or 1 x PBS buffer at 1000 rpm, and the immobilization buffer was sodium acetate, pH 5 (10 mM, Cat 18-1068. α-syn monomers was immobilized the α-syn antigen, and fibrils was immobilized the test antibody. The target concentrations were 20 µg/ml for the monomer and 0.4 µg/ml for the fibril. The kinetics concentration was diluted sequentially two times from 50 nM for monomers and from 100 nM for fibrils, to give 7 points in total, respectively. Association/dissociation time was 5 min / 20 min for monomer and 5 min / 25 min for fibril. Biosensor was ARG2 and fitting was performed using 1: 1 fitting model.
Octet analysis was performed as described in Examples 2-4 using the ScFV anti-Syn antibodies selected in Example 1-2.

α-syn aggregate [3] = biological target: T1, α-syn aggregate; assay: BIAcore (SPR), 1:1 binding model (Example 2-3), column Fibrils
Description: Quantitative analysis of the binding of alpha-synuclein antibody prepared in Example 1 to monomer and aggregate antigen was performed using BIAcore analysis.
The used instrument was T200 (GE Healthcare, S / N: 1565888). Protein A is used as a chip (GE Healthcare, Cat. 29-1275-56). 10 mM Glycine-HCl pH 1.5 (GE Healthcare, Cat. BR-1003-54) was regeneration buffer. The running buffer, analyte dilution, and the sample dilution buffer were HBS-EP. The α-syn antibodies (3A9, 9B11 and 11F11) prepared in Example 1 were diluted with 1 x HBS-EP (GE Healthcare, Cat. BR-1006-69), and alpha-synuclein monomer (1 mg/ml) and fibril protein (3 mg / ml) were serially diluted in duplicate and analyzed at 6 concentrations (0, 0.39, 1.56, 6.25, 25, 100 nM) including 0 nM in total. For the capture, the monomer was for RU of 800 (theoretical), and a fibril was for RU of 100 (theoretical). The capture phase was performed at contact time of 60 seconds, a flow rate of 30 µl / min, and a stabilization period of 180 seconds. The association phase was performed at the association time of 120 seconds and the flow rate was 30 µl/min. The dissociation phase was performed at the dissociation time of 360 seconds and the flow rate of 30 µl/min. The regeneration phase was performed twice time at the regeneration time of 240 seconds (primary) and 60 seconds (secondary) and a flow rate of 30 µl/min. The fitting was carried out suing 1: 1 binding model, and the evaluation software was BIACore T200 Evaluation software (GE healthcare).

α-syn monomer = α-syn monomer (human, UniProt P37840 1-140); assay: ELISA (Example 2-2), column Monomers

Binder	EC50 (α-syn aggregate [1])	Kd (α-syn aggregate [2]) [nM]	Kd (α-syn aggregate [3]) [nM]	EC50 (α-syn monomer)
B1	0.319 µg/mL and 2.13 nM	0.13	1.32	
B2	0.087 nM and 0.0131 µg/mL	0.81		0.0233 µg/mL and 0.155 nM
B3	0.0245 µg/mL and 0.163 nM	0.18		
B4	0.185 µg/mL and 1.23 nM	0.018	0.904	
B5		0.24		
B6		0.39		
B7		0.88		
B8		4.31		
B9		1.67		
B10		2.66		
B11		3.8		
B12		0.17		
B13		1.26		
B14	0.327 µg/mL and 2.18 nM	0.16	2.87	
